Article PMC7069974, “Single molecule analysis reveals monomeric XPA bends DNA and undergoes episodic linear diffusion during damage search”
Where a chain is given by its changes, count along the chain named.

B1: ND37 (dsDNA)
DNA 1: CCGAGTCATTCCTGCAGCGAGTCCATGGGAGTCAAAT
DNA 2: ATTTGACTCCCATGGACTCGCTGCAGGAATGACTCGG
modifications: 5'-phosphate top strand
B2: CPD37 (dsDNA)
DNA 1: B1 DNA 1 with G21T
DNA 2: B1 DNA 2 with C17A
modifications: CPD T<>T at T21-T22 of top strand; 5'-phosphate top strand
B3: AAF37 (dsDNA)
DNA 1: B1 DNA 1
DNA 2: B1 DNA 2
modifications: dG-C8-AAF at G14 of top strand; 5'-phosphate top strand

Key:
Test in all cases: EMSA; EMSA: 8 nM DNA, 20 mM HEPES pH 7.5, 150 mM NaCl, 5 mM DTT, 0.5 mg/ml BSA, 5% glycerol, 25 min at room temperature; gel 5% native, 0.5x TBE, 4 C. AFM: 100 nM DNA, 1-4 uM XPA (ND538)
Conditions in all cases: protein: recombinant, tags: N-terminal His, label: 5'-6FAM on bottom strand, blunt
His-truncXPA-StrepII = His-truncXPA-StrepII (human, UniProt P23025 98-239)
His-truncXPA-StrepII, sequence (P23025 98-239): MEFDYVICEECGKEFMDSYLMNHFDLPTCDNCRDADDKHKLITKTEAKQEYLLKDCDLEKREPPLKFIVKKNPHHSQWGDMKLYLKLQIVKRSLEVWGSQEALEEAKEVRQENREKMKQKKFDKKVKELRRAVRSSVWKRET

His-flXPA-StrepII [1] = target: T1, His-flXPA-StrepII (human, UniProt P23025 1-273)
T1 sequence (P23025 whole entry): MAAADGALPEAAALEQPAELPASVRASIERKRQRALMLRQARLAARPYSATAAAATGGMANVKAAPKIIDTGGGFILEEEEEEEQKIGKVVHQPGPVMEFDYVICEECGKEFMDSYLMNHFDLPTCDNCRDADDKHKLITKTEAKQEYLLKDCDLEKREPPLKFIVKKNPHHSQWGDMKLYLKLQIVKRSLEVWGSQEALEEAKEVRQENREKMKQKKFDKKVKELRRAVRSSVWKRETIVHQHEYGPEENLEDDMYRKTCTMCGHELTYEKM

His-flXPA-StrepII [2] = target: T1, His-flXPA-StrepII; remark: listed apart in the source

Binder	Kd (His-truncXPA-StrepII) [nM]	Kd (His-flXPA-StrepII [1]) [nM]	binding signal (His-flXPA-StrepII [2])
B1	269 ± 22	253 ± 14	
B2	269 ± 24		~44 fold specificity for CPD over non-damaged DNA (Kd ratio x 37 sites)
B3	189 ± 9	109 ± 5	
